The text below walks through data of publication PMC8248744, “High-resolution genetic mapping reveals cis-regulatory and copy number variation in loci associated with cytochrome P450-mediated detoxification in a generalist arthropod pest” (PLoS Genetics, 2021).

Substrate in the series: COC(c1ccc(NC(=O)c2c(C)nn(C)c2C)cc1CC(C)C)(C(F)(F)F)C(F)(F)F
The experiment in a line: HPLC-UV substrate depletion, recombinant membranes. In kind it is biochemical, Tetranychus urticae. The note with it: NADPH-regenerating system, 0.2 M Tris-HCl pH 7.4, 0.25 mM MgCl2, 2.5% acetonitrile, 30°C, N-demethylation at pyrazole, co-expressed with TuCPR.

B1: CYP392A16 (Tetranychus urticae) (protein)
chain: MIEVIHSGSIPDGHFTVSTIMFLISNLLSSQPLVNSLIGLALFWLVKYLFNTIQRIRSLPAGPWGLPIVGYLPFIKDDIYLVFDQLSKKYGPVYSLKLGSFDVVLVCDWPHMKDAVANDALLARQHEVFFPGVVEGRSFAEMSGDPWREHRRLSLHILRDVGLGKSTIETLVKEEVDQFLSALENNGKPADFEKCISRSVTNNVSILLFGHKYERDDPTAIAISSANTEVGRSFSFAGVVAFLPWLAELVFKFELFNVTRLKKCFQIVDTHIQDEIVKHQEKNSQEVVDYIDGYLVEKKNREKQNKVDDNFTIEILRRNAGAFYGAGTETVSSTMEWIMVYLVKYPEYQDKIRSEIADVIGFERKPDYVDRNRMPFTMAFIHEIHRIGSVVANNLLRRAASDTKIGNYNIPKDTLVILNFWSVNRDPKLWPNPDEFDPTRFLTEDGSKVVKPPHLIPFSAGKRNCPGESLANVELFLYLVCMLQKYHVKVKPGTKISTEAIFGLSRRPSQLPTFIFEKISNSN
notes: E. coli BL21STAR membrane fraction; with NADPH--cytochrome P450 reductase
On to B1, for which the Km is reported as 17.79 (± 3.29 SE) μM.
